# Experimental data: IntAct's records for PubMed 19682256
# B1: Aerobic respiration control sensor protein ArcB (Escherichia coli (strain K12)), P0AEC3 (parent)
# chain: MKQIRLLAQYYVDLMMKLGLVRFSMLLALALVVLAIVVQMAVTMVLHGQVESIDVIRSIFFGLLITPWAVYFLSVVVEQLEESRQRLSRLVQKLEEMRERDLSLNVQLKDNIAQLNQEIAVREKAEAELQETFGQLKIEIKEREETQIQLEQQSSFLRSFLDASPDLVFYRNEDKEFSGCNRAMELLTGKSEKQLVHLKPADVYSPEAAAKVIETDEKVFRHNVSLTYEQWLDYPDGRKACFEIRKVPYYDRVGKRHGLMGFGRDITERKRYQDALERASRDKTTFISTISHELRTPLNGIVGLSRILLDTELTAEQEKYLKTIHVSAVTLGNIFNDIIDMDKMERRKVQLDNQPVDFTSFLADLENLSALQAQQKGLRFNLEPTLPLPHQVITDGTRLRQILWNLISNAVKFTQQGQVTVRVRYDEGDMLHFEVEDSGIGIPQDELDKIFAMYYQVKDSHGGKPATGTGIGLAVSRRLAKNMGGDITVTSEQGKGSTFTLTIHAPSVAEEVDDAFDEDDMPLPALNVLLVEDIELNVIVARSVLEKLGNSVDVAMTGKAALEMFKPGEYDLVLLDIQLPDMTGLDISRELTKRYPREDLPPLVALTANVLKDKQEYLNAGMDDVLSKPLSVPALTAMIKKFWDTQDDEESTVTTEENSKSEALLDIPMLEQYLELVGPKLITDGLAVFEKMMPGYVSVLESNLTAQDKKGIVEEGHKIKGAAGSVGLRHLQQLGQQIQSPDLPAWEDNVGEWIEEMKEEWRHDVEVLKAWVAKATKK
# partner: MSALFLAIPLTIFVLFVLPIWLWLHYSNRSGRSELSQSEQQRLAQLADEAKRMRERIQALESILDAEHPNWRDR
# B2: Aerobic respiration control sensor protein ArcB (Escherichia coli (strain K12)), P0AEC3 (parent)
# chain: B1 chain
# B3: Phage shock protein B (Escherichia coli (strain K12)), P0AFM9 (parent)
# chain: B1 partner
# partner: B1 chain
# Variants of: B1
# Conditions: with pspb_ecoli pspB, P0AFM9
row,Variant,effect of a mutation on the interaction
1,L87A;L90A;L94A;M97A,decreasing interaction strength

# Variants of: B2
# Conditions: with pspa_ecoli pspA
row,Variant,effect of a mutation on the interaction
1,L87A;L90A;L94A;M97A,decreasing interaction strength

# Variants of: B3
# Conditions: with arcb_ecoli arcB, P0AEC3
row,Variant,effect of a mutation on the interaction
1,L10A;L15A;L18A,decreasing interaction strength
